B1: BBSome-interacting protein 1 (Homo sapiens), A8MTZ0 (parent)
chain: MLKAAAKRPELSGKNTISNNSDMAEVKSMFREVLPKQGPLFVEDIMTMVLCKPKLLPLKSLTLEKLEKMHQAAQNTIRQQEMAEKDQRQITH
partner: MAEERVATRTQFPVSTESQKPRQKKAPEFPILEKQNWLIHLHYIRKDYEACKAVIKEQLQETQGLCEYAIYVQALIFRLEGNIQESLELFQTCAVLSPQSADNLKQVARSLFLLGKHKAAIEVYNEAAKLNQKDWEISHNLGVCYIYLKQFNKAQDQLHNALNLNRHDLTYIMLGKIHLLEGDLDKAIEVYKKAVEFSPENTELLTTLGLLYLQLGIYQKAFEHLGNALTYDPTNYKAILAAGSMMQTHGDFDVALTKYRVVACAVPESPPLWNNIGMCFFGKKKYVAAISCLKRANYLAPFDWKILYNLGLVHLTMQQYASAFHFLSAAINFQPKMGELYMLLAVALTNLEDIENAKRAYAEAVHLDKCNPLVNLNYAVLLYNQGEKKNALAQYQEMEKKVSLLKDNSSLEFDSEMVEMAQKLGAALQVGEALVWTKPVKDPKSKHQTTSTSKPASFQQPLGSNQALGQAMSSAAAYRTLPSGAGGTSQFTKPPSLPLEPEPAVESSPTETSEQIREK

Variants of: B1
Settings: with bbs4_human BBS4, Q96RK4

Variant | effect of a mutation on the interaction
MLKAAAKRPELSGKNTISNNSDMAEVKSMFREVLPKQGPLFVEDIMTMVLCKPKLLPLKSLTLEKLEEMHQAAQNTIRQQEMAEKDQRQITH [K68E] | with no effect
MLKAAAKRPELSGKNTISNNSDMAEVKSMFREVLPKQGPLFVEDIMTMVLCKPKLLPLKSLTLEKLEAMHQAAQNTIRQQEMAEKDQRQITH [K68A] | with no effect
MLKAAAKRPALSGKNTISNNSDMAEVKSMFREVLPKQGPLFVEDIMTMVLCKPKLLPLKSLTLEKLEKMHQAAQNTIRQQEMAEKDQRQITH [E10A] | with no effect
MLKAAAKRPELSGKNTISNNSDMAEVKSMFREVLPKQGPLFVEEIMTMVLCKPKLLPLKSLTLEKLEKMHQAAQNTIRQQEMAEKDQRQITH [D44E] | with no effect
MLKAAAKRPELSGKNTISNNSDMAEVKSMFREVLPKQGPLFVEDIMTMVLCKPKLLPLKSLTLEKLEKMHQAAQNTIRQQEMAEKDERQITH [Q87E] | with no effect
MLKAAAKRPELSGKNTISNNSDMAEVKSMFREVLPKQGPLFVEDIMTMVLCKPKLLPLKSLTLEKLEKMHQAAQNTIRQQEMAEKDQRQIKH [T91K] | with no effect
MLKAAAKRPEASGKNTISNNSDMAEVKSMFREVLPKQGPLFVEDIMTMVLCKPKLLPLKSLTLEKLEKMHQAAQNTIRQQEMAEKDQRQITH [L11A] | with no effect
MLKAAAKRPELSGKNTISNNSDMAEVKSMFREVLPKQGPLFVEDIMTMVLCKPKLLPLKSLTLEKLEKMHQAAQNKIRQQEMAEKDQRQITH [T76K] | with no effect
MLKAAAKRPELSGKNTISNNSDMAEVKSMFREVLPKQGPLFVEDIMTMVLCKPKLLPLKSLTLEKLEKMHQAAQNEIRQQEMAEKDQRQITH [T76E] | with no effect
MLKAAAKRPELSGKNAISNNSDMAEVKSMFREVLPKQGPLFVEDIMTMVLCKPKLLPLKSLTLEKLEKMHQAAQNTIRQQEMAEKDQRQITH [T16A] | with no effect
MLKAAAKRPELSGKNKISNNSDMAEVKSMFREVLPKQGPLFVEDIMTMVLCKPKLLPLKSLTLEKLEKMHQAAQNTIRQQEMAEKDQRQITH [T16K] | with no effect
MLKAAAKRPELSGKNTISNNSDMAEVKSMFREVLPYQGPLFVEDIMTMVLCKPKLLPLKSLTLEKLEKMHQAAQNTIRQQEMAEKDQRQITH [K36Y] | disrupting interaction strength
MLKAAAKRPELSGKNTISNNSDMAEVKSMFREVLPEQGPLFVEDIMTMVLCKPKLLPLKSLTLEKLEKMHQAAQNTIRQQEMAEKDQRQITH [K36E] | with no effect
MLKAAAKRPELSGKNTISNNSDMAEVKSMFREVLPKQGPLFVEDIMTKVLCKPKLLPLKSLTLEKLEKMHQAAQNTIRQQEMAEKDQRQITH [M48K] | with no effect
MLKAAAKRPELSGKNTISNNSDMAEVKSMFREVLPKQGPLFVEDIMTMVLCKPKLLPEKSLTLEKLEKMHQAAQNTIRQQEMAEKDQRQITH [L58E] | with no effect
MLKAAAKRPELSGKNTISNNSDMAEVKSMFREVLPKQGPLFVEDIMTMVLCKPKLFPLKSLTLEKLEKMHQAAQNTIRQQEMAEKDQRQITH [L56F] | disrupting interaction strength
MLKAAAKRPELSGKNTISNASDMAEVKSMFREVLPKQGPLFVEDIMTMVLCKPKLLPLKSLTLEKLEKMHQAAQNTIRQQEMAEKDQRQITH [N20A] | with no effect
MLKAAAKRPELSGKNTISNNSDMAEVKSMFREVLSKQGPLFVEDIMTMVLCKPKLLPLKSLTLEKLEKMHQAAQNTIRQQEMAEKDQRQITH [P35S] | disrupting interaction strength
MLKAAAKRPELSGKNTISNNSDMAEVKSMFREVLPKQGPLFVEDIMTMVLCKPKLLPLKSLTLEKLEKMHQAAQNTIRQQEMAEKDQREITH [Q89E] | with no effect
ELKAAAKRPELSGKNTISNNSDMAEVKSMFREVLPKQGPLFVEDIMTMVLCKPKLLPLKSLTLEKLEKMHQAAQNTIRQQEMAEKDQRQITH [M1E] | with no effect
MLKAAAKRPELSGKNTESNNSDMAEVKSMFREVLPKQGPLFVEDIMTMVLCKPKLLPLKSLTLEKLEKMHQAAQNTIRQQEMAEKDQRQITH [I17E] | with no effect
MLKAAAKRPELSGKNTISNNSDMAEVKSMFREVLPKQGPLFVEDIMTMVLCKPKLLPLKSLTLEKLEKMHQAAQNTIRQQEMAEKDQRQITE [H92E] | with no effect
MLKAAAKRPELSGKNTISNNSDMAEVKSMFREVLPKQGPLFVEDIMTMVLCKPKLLPLKSLTLAKLEKMHQAAQNTIRQQEMAEKDQRQITH [E64A] | with no effect
MLKAAAKRPELSGKNTISNNSDMAEVKSMFREVLPKQGPLFVEDIMTMVLCKPKLLPLKSLTLEKLEKMHQAAQNTIRQQEAAEKDQRQITH [M82A] | with no effect
MLKAAAKRPELSGKNTISNNSDMAEVKSMFREVLPKQGPLFVEDIMTMVLCKPKLLPLKSLTLEKLEKMHQAAQNTIRQQEKAEKDQRQITH [M82K] | with no effect
MLKAAAKRPELSGKNTISNNSDMAEVKSMFREVLPKQGPLFVEDIMTMVLCKPKLLPLKSETLEKLEKMHQAAQNTIRQQEMAEKDQRQITH [L61E] | with no effect
MLKAAAKRPELSGKNTISNNSDMAEVKSMFREVLPKQGPLFVEDIMTMVLCKPKLLELKSLTLEKLEKMHQAAQNTIRQQEMAEKDQRQITH [P57E] | with no effect

Source: IntAct's records for PubMed 29039417
